This is an account of results in US20210030870A1 (STIPE THERAPEUTICS, published 2021).

As usually defined, the Kd is the equilibrium constant for the complex coming apart. The low end stands for tighter binding, the high end for weaker binding.

The test addresses T1, C-terminal STING (immobilized and purified) (Homo sapiens, UniProt Q86WV6 139-379).
T1 construct: only an unstated C-terminal part stood in the assay; also called immobilized C-terminal STING
Nature of the test: SPR (Biacore); C-terminal STING immobilized on the sensor chip.

T1 sequence (Q86WV6 139-379 limits assumed): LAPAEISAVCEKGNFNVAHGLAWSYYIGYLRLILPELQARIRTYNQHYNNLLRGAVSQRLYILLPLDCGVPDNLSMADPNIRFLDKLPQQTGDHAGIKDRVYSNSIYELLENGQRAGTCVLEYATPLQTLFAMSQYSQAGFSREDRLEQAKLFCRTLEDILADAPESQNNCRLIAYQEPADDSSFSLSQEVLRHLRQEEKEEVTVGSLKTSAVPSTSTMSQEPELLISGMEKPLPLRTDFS
Procedure: For the surface plasmon resonance (SPR) analyses, BlAcore sensor chips (type CMS; Biacore, Uppsala, SE) were activated with a 1:1 mixture of 0.2 M N-ethyl-N′-(3-dimethylaminopropyl) carbodiimide and 0.05 M N-hydroxysuccinimide in water according to the manufacturer. C-terminal STING was immobilized. The SPR signal from immobilized C-terminal STING generated BlAcore resonance units (RU) that were equivalent to 66 fmol/mm2. The flow cells were regenerated with 20 μl of 1.5 M glycine-HCI (pH 3.0). The flow buffer was 10 mM HEPES, 150 mM NaCl, 1.5 mM CaCl2, and 1 mM EGTA (pH 7.4). The binding data was analyzed using the BIAevaluation program. The number of ligands bound per immobilized receptor was estimated by dividing the ratio RU ligand/mass ligand with RU receptor/mass receptor. The Kd for binding was estimated using a BIA evaluation program.

B1: PEP301, PB1 domain fragment peptide of human P62 (peptide)
peptide: FSFCCSPEPEAEAEAAAGPGGRKKRRQRRRPQ
notes: also called Sp62-301; PB1-domain peptide PEP301
The molecule B1 came in with a Kd of 746 nM.
